These results are taken from patent US20210238252A1.

The experiment concerns the target Fc receptor CD16 (UniProt P08637). Nature of the experiment: cell-based or functional assay.

Fc receptor CD16, sequence (P08637 17-254 limits assumed): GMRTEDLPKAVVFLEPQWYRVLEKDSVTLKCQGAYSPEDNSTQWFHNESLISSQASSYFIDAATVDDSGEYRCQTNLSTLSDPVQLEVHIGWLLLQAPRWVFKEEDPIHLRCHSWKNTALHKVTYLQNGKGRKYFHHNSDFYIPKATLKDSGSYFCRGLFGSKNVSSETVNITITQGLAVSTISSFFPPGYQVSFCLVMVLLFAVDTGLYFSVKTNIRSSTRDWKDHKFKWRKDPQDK

In turn, IgGb12 (antibody) came in with an IC50, ADCC: killing of BaL-infected CEM.NKR.CCR5+ Luc cells by KHYG-1 CD16+ NK cells of 0.0662 µg/mL.
